Source: publication PMC3326337

Tested on: Streptavidin
Experiment: DRaCALA
Conditions: 5'-biotin on one strand

Work on 3x ICAP PCR probe with biotin yielded a Kd of 0.4 nM.
